Experiment [1] addresses fusion protein in which the extracellular domain of Cynomolgus monkey GITR is fused with the domain of mouse IgG1-Fc (Cynomolgus monkey). The experiment is described as follows: ELISA, cynoGITR-muFc coated at 5 ug/ml, anti-human IgG-HRP (FIG. 7).
The target is the same in experiment [2]. Put plainly: ELISA, cynoGITR-muFc coated at 5 ug/ml, anti-human IgG-HRP (FIG. 8).

Chain of fusion protein in which the extracellular domain of Cynomolgus monkey GITR is fused with the domain of mouse IgG1-Fc (Cynomolgus monkey) (chain, as listed by the source limits assumed, form in doubt): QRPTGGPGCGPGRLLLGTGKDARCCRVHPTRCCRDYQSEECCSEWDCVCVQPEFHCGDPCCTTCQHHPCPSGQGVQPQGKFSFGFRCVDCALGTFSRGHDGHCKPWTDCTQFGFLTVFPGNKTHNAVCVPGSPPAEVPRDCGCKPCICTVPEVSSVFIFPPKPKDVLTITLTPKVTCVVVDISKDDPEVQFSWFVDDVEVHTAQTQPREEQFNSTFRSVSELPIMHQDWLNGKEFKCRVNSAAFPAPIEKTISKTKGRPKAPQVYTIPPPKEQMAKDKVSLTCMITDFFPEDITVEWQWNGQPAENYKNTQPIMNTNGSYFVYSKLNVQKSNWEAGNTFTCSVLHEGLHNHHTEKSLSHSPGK

B1: isolated antigen-binding protein C3E2 (antibody, human IgG1, kappa, V domains shown)
VH: QVQLQESGPGILQPSQTLSLTCSFSGFSLSTFGMGVGWIRQPSGKGLEWLVLILWNDIKYYNPALKSLLTVSKDTSNNQVFLKIASVDTADTATYYCARVDGYYGYFDVWGTGTTVTVSS
VL: DIVMTQSPLSLPVSLGDQASISCRSSQTIVHSNGNTYLEWYLQKPGQSPKLLIYKVSNRFSGVPDRFSGSGSGTDFTLKISRVEAEDLGVYYCFQGSHVPWTFGGGTKLEIKR
As for B1, the EC50 came to 0.0704 µg/mL in experiment [1] and 0.0747 µg/mL in experiment [2].

B2: isolated antigen-binding protein 3E2 1-2 (antibody, human IgG1, kappa, V domains shown)
VH: QVTLQESGPTLVKPTQTLTLTCTFSGFSLSTFGMGVGWIRQPPGKGLEWLVLILWNDIKYYNPALKSLLTVTKDTSKNQVVLTITNMDPVDTATYYCARVDGYYGYFDVWGQGTMVTVSS
VL: DIVMTQSPLSLPVTLGQPASISCRSSQTIVHSNGNTYLEWYLQRPGQSPKLLIYKVSNRFSGVPDRFSGSGSGTDFTLKISRVEAEDVGVYYCFQGSHVPWTFGGGTKVEIKR
In experiment [1], B2 displayed a 50% effective concentration (EC50) of 0.0517 µg/mL.

The values above are taken from patent US20220356259A1.
